Results published in PMC9321131.
Where two headings read alike, the source gives them in different places.

B1: PvLBO promoter probe 2 (site 2) (dsDNA)
DNA 1: TACAATATTTGTACTGTCATAATA
DNA 2: TATTATGACAGTACAAATATTGTA
B2: PvLBO promoter probe 1 (site 1) (dsDNA)
DNA 1: CCCCCCAAACGTACTATTTACTAT
DNA 2: ATAGTAAATAGTACGTTTGGGGGG

Legend:
rPvSPL2 (GST-PvSPL2) [1] = molecular target: T1, rPvSPL2 (GST-PvSPL2) (Panicum virgatum, UniProt A0A8T0WHV5 1-470); assay: EMSA
T1 sequence: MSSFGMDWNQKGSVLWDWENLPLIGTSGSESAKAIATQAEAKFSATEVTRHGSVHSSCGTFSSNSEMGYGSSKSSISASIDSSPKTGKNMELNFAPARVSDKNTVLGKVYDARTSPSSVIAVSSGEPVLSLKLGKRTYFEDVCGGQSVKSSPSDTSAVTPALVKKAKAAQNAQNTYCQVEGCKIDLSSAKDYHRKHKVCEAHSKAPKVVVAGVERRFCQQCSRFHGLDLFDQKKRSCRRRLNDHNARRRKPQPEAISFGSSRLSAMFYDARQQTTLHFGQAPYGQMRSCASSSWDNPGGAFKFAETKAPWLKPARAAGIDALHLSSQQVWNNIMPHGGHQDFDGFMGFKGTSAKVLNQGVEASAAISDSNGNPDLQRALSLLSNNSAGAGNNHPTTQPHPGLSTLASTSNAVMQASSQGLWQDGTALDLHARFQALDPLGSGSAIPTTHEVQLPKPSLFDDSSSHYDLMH

rPvSPL2 (GST-PvSPL2) [2] = molecular target: T1, rPvSPL2 (GST-PvSPL2); assay: EMSA; remark: listed apart in the source

Row | Binder | binding result (rPvSPL2 (GST-PvSPL2) [1]) | binding result (rPvSPL2 (GST-PvSPL2) [2])
1 | B1 | binds | 
2 | B2 |  | binds
